Data published in PMC6379680, “The Leishmania PABP1–eIF4E4 interface: a novel 5′–3′ interaction architecture for trans-spliced mRNAs” (Nucleic Acids Research, 2018).
Ends that are not written are not given here.

What was measured:
[1] = biological target: eIF4G (Saccharomyces cerevisiae) (UniProt P39935); settings: cited from earlier work
[2] = biological target: full-length Leishmania eIF4G3 (Leishmania major) (UniProt Q4QEK5); assay: fluorescence polarisation; fluorescence anisotropy, PTI QuantaMaster; Alexa-647-labelled eIF4G3, eIF4E4(v)::PABP1(J) added
[3] = biological target: eIF4E4(iv), an approximately 5 kDa region of the extended N-terminal domain of Leishmania major eIF4E4 (Leishmania major); assay: MST; labelled eIF4E4(iv) held constant, non-labelled PABP1 section varied (16 tubes); Nanotemper Monolith NT.115
[4] = biological target: T1, PABP1(J), the PABC domain of Leishmania major PABP1 prepared as segment J (Leishmania major, UniProt E9AFX7 482-560); assay: MST; FITC-labelled synthetic 14mer peptides with PABP1(J); settings: both partners purified
T1 construct: 15N,13C-labelled form used in NMR; also called PABP1 PABC domain; PABC1; source: E. coli NiCo21(DE3), synthetic reading frame, purified (cobalt IDA resin, gel filtration); also co-expressed with eIF4E4(v) from a dual expression plasmid
T1 sequence: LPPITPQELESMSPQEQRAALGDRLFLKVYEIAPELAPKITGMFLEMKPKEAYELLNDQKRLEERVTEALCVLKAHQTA

[5] = biological target: Leishmania major eIF4E4 segment (iv) (Leishmania major); assay: SPR; eIF4E4(iv) immobilised by amine coupling on a Biacore CM5 chip, PABP1(J) passed over, Biacore T200; homogeneous 1:1 binding model
eIF4E4(iv) = assay: Microscale thermophoresis of mutated PABP1(J) F525A with eIF4E4(iv); type: binding, Leishmania major
Experimental: Microscale thermophoresis experiments were performed using eIF4E4(iv) or eIF4G3 labelled with a fluorescent tag (Monolith Protein Labeling Kit Red-Maleimide), or the eIF4G3 peptide […] labeled with fluorescein-5-isothiocyanate. The concentration of the fluorescently labelled protein (eIF4E4(iv)) was held constant, while the concentration of non-labelled ligand protein was varied. The experiment was conducted by preparing 16 tubes with various ratios of the interacting labelled/non-labelled proteins. The solutions were introduced into capillaries, which were then loaded into a Nanotemper Monolith NT.115 instrument for measurement. […] In order to maximise confidence in the calculated dissociation constant values (based on kON and kOFF values), two types of model were fitted to the raw data: a homogeneous 1:1 binding model, and a heterogeneous 1:1 two-ligand model. […] Fluorescence anisotropy measurements were performed using a PTI QuantaMaster fluorimeter. […]
We wanted to establish a quantitative understanding of the relative significance of interactions between the Leishmania cap-binding complex factors eIF4E4, eIF4G3 and PABP1 using protein domains or full-length proteins, rather than peptides. […]

PABP1 = assay: Microscale thermophoresis, Alexa-647-labelled eIF4G3 with PABP1; type: binding, Leishmania; settings: Alexa-647-labelled eIF4G3 and PABP1
Experimental: (§1) Microscale thermophoresis experiments were performed using eIF4E4(iv) or eIF4G3 labelled with a fluorescent tag (Monolith Protein Labeling Kit Red-Maleimide), or the eIF4G3 peptide […] labeled with fluorescein-5-isothiocyanate. The concentration of the fluorescently labelled protein (eIF4E4(iv)) was held constant, while the concentration of non-labelled ligand protein was varied. The experiment was conducted by preparing 16 tubes with various ratios of the interacting labelled/non-labelled proteins. The solutions were introduced into capillaries, which were then loaded into a Nanotemper Monolith NT.115 instrument for measurement. For the SPR experiments, eIF4E4(iv) was immobilized via amine coupling to a Biacore CM5 sensor chip (GE Healthcare Life Sciences) and titrations against PABP1(J) were performed in a Biacore T200 instrument. In order to maximise confidence in the calculated dissociation constant values (based on kON and kOFF values), two types of model were fitted to the raw data: a homogeneous 1:1 binding model, and a heterogeneous 1:1 two-ligand model. […] Fluorescence anisotropy measurements were performed using a PTI QuantaMaster fluorimeter. […]
(§2) Figure 5. Quantitative characterization of interactions of Leishmania cap-complex proteins. […] Fluorescence anisotropy measurements (C) detected binding of Alexa-647-labelled eIF4G3 to the complex eIF4E4(v):PABP1(J). […]

eIF4E4(v):PABP1(J) = assay: Fluorescence anisotropy, Alexa-647-labelled eIF4G3 binding to the complex eIF4E4(v):PABP1(J); set-up: species or system Leishmania; settings: Alexa-647-labelled eIF4G3, eIF4E4(v)::PABP1(J) added, read-out: KD (average of calculated KD values)
Experimental: as §1, §2

[6] = biological target: T1, PABP1(J), the PABC domain of Leishmania …; assay: MST; labelled eIF4E4(iv) held constant, non-labelled PABP1 section varied (16 tubes); Nanotemper Monolith NT.115; settings: both partners purified

Sequence of eIF4G (Saccharomyces cerevisiae) (P39935 whole entry): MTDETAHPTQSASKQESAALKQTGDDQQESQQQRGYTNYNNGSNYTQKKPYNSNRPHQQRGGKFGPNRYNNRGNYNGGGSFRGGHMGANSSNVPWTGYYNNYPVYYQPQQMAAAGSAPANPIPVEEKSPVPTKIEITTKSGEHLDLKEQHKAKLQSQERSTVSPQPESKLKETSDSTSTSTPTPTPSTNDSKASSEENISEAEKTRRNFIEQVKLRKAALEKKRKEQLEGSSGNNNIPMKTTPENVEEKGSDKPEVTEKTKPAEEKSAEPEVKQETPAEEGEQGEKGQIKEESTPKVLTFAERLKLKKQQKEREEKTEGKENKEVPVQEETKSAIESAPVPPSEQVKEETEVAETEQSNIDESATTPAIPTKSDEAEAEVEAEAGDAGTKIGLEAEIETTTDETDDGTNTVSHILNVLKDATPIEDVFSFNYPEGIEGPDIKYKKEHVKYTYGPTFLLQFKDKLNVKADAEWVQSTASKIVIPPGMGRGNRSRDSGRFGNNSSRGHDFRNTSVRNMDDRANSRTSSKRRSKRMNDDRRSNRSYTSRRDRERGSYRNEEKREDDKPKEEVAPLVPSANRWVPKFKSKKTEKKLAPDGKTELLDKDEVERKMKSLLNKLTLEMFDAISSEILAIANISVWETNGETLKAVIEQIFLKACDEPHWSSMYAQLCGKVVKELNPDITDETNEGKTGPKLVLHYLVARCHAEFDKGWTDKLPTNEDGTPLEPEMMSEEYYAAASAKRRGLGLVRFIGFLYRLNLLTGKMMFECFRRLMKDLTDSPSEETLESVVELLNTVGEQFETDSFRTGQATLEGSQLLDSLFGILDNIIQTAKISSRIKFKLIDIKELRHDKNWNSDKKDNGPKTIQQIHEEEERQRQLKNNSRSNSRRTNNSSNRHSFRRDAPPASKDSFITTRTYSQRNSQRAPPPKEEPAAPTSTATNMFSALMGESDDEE

For eIF4E (from UniProt P07260), the Kd [1] is listed as 2.3 nM.

Work on “heterodimeric complex eIF4E4(v):PABP1(J) (from UniProt E9AFX7 482-560)” yielded a Kd [2] of 340 nM.

“PABP1(J) F525A (from UniProt E9AFX7) (domain or fragment)” showed a Kd [3] of 550 nM.

B1: eIF4E4 PAM2-motif FITC-labelled 14mer peptide, M140A (peptide)
peptide: HHANPNATEFMPGR
modifications: also: FITC label
notes: source: synthetic peptide (Thermo Fisher Scientific, HPLC-purified to 98%)
In the case of B1, the Kd [4] is reported as 34.3 ± 1.3 nM.

B2: eIF4E4 PAM2-motif FITC-labelled 14mer peptide, E146A (peptide)
peptide: HHMNPNATAFMPGR
modifications: also: FITC label
notes: as for B1
B2 showed a Kd [4] of 163 ± 16.4 nM.

B3: eIF4E4 PAM2-motif FITC-labelled 14mer peptide, M148A (peptide)
peptide: HHMNPNATEFAPGR
modifications: also: FITC label
notes: as for B1
In the case of B3, the Kd [4] is reported as 62.8 ± 3.1 nM.

B4: eIF4E4 PAM2-motif FITC-labelled 14mer peptide, WT (peptide)
peptide: HHMNPNATEFMPGR
modifications: also: FITC label
notes: also called 'wild-type' peptide; 14mer eIF4E4 peptide; source: synthetic peptide (Thermo Fisher Scientific, HPLC-purified to 98%)
With B4 the Kd [4] was 33 ± 0.9 nM.

B5: Leishmania major PABP1 segment J (PABC domain) (domain or fragment)
chain: LPPITPQELESMSPQEQRAALGDRLFLKVYEIAPELAPKITGMFLEMKPKEAYELLNDQKRLEERVTEALCVLKAHQTA
modifications: here or on the partner: 13C,15N-labelled in the NMR experiment
In the case of B5, the Kd [5] is reported as 160 nM.

B6: PABP1(J) F525A: PABC domain of Leishmania PABP1 (segment J) with phenylalanine 525 mutated to alanine (protein)
chain: LPPITPQELESMSPQEQRAALGDRLFLKVYEIAPELAPKITGMALEMKPKEAYELLNDQKRLEERVTEALCVLKAHQTA
In the case of B6, the Kd (eIF4E4(iv); eIF4E4(iv) + PABP1(J) F525A, average of three independent titrations) is reported as 550 nM and the “KD relative to the non-mutated PABP1(J) value” (eIF4E4(iv); ratio of KD values) is reported as 25 times.

B7: eIF4G3: full-length Leishmania eIF4G3, Alexa-647-labelled (protein)
chain: MQFTVEQIRSVRNNYLEPPYPGFSLDEVVRRRRLTQTKLVRGENAWVAKGTAQTTEEWVQRLLHGTLNKLTEENKDIMIDKLLTKELFATEDIMNMVVNIIFKKALDEPENSKLYAGVCHSLALYEAKVLRDGHKGERPQSQLRDAIISTAQHEFRTLSKELSKMEDKSEEELEYERSNVMRRKRSNMRFIGELYLCTALTHSTMFTVMDLTMRCSDKTGFPSSENIELLAALLNTIGDRLDKNHKKTLDPYFTSLENFNKKSDCPYPPRIRFKIMDLLDLRKRGWGLKPKPVKAALPPSHGKDKKYATAPPPKKGGRDQGSAAAASKSWRDAATTKTGTAAAPAPSADKGLNGRGTSSAAPAANTAALSSSAASTAAATAPAGASFRDEASPQVPLVKFELRVASMFQEWVADRTNDVILHWVDQFNTCDRFFESESELCVAVAQEVIHSACTTTRKDAQREAFSFLVVGLYMIDTEVFDGFASALASAIEDGLLEDVPKFGERFMSMLRLTSTEQETRADVYFDAANVLRLTYNRLESPDDSAVDTLMSFWDRVPLPSTDEENMIRMDLDVVYSLCNPEGVQDGLEKLLSRIIHSMLQMQLMDAEVLDEFLCLDVEDGLCAKVIADYKERFPK
modifications: Alexa 647 label (Monolith Protein Labeling Kit Red-Maleimide) in the fluorescence anisotropy and MST experiments; left off: His12, end not stated, kept
notes: full-length Leishmania eIF4G3, Alexa-647-labelled
For B7, the “binding” value (PABP1) was “no binding could be detected” and the Kd (eIF4E4(v):PABP1(J)) was 340 nM.

B8: eIF4E4 PAM2-motif FITC-labelled 14mer peptide, N143A (peptide)
peptide: HHMNPAATEFMPGR
modifications: also: FITC label
notes: as for B1
With B8 the Kd [4] was 69.2 ± 4.9 nM.

For PTRFSPATVPRHHMNPNATEFMPGRRNGPDGGLEALPTSTAD (domain or fragment, also: Alexa 647 label (Red-Maleimide) for MST), the Kd [6] was 22 nM.

B9: eIF4E4 PAM2-motif FITC-labelled 14mer peptide, F147A (peptide)
peptide: HHMNPNATEAMPGR
modifications: also: FITC label
notes: also called F147A mutant peptide; source: synthetic peptide (Thermo Fisher Scientific, HPLC-purified to 98%)
B9 showed a Kd [4] of 127 ± 13.4 nM.
